# B1: human CHCHD4 (coiled-coil-helix-coiled-coil-helix domain containing 4) (natural protein, UniProt Q8N4Q1 1-142, looked up)
# chain: MSYCRQEGKDRIIFVTKEDHETPSSAELVADDPNDPYEEHGLILPNGNINWNCPCLGGMASGPCGEQFKSAFSCFHYSTEEIKGSDCVDQFRAMQECMQKYPDLYPQEDEDEEEEREKKPAEQAEETAPIEATATKEEEGSS
# notes: human CHCHD4, UniProtKB Q8N4Q1; synthetic codon-optimised cDNA in pET28a (NdeI-NotI); The His6 tag is called cleavable; whether it was cleaved is told only in the supplementary materials; source: E. coli C41 (DE3), purified (protocol in the supplementary materials)
# Columns and labels:
# Conditions in all cases: both partners purified
# [1] = biological target: T1, WT human apoptosis-inducing factor hAIF_(Δ1-101) (human, UniProt O95831 102-613); test: ITC; Auto-iTC200, 25°C, 50 mM potassium phosphate, pH 7.4; 10-20 μM protein partner titrated into ~10 μM hAIF_(∆1-101) variant in the CTC state (premixed with NADH at a 1 : 100 ratio); single-ligand binding site model
# T1 construct: FAD holoprotein. 'ox' is the oxidized protein; 'CTC' is the same protein reduced by an excess of NADH (FADH-/NAD+ charge transfer complex); The His6 tag is called cleavable; whether it was cleaved is told only in the supplementary materials; also called WTox; source: protocol in the supplementary materials
# T1 sequence (O95831 102-613, stated change not applied): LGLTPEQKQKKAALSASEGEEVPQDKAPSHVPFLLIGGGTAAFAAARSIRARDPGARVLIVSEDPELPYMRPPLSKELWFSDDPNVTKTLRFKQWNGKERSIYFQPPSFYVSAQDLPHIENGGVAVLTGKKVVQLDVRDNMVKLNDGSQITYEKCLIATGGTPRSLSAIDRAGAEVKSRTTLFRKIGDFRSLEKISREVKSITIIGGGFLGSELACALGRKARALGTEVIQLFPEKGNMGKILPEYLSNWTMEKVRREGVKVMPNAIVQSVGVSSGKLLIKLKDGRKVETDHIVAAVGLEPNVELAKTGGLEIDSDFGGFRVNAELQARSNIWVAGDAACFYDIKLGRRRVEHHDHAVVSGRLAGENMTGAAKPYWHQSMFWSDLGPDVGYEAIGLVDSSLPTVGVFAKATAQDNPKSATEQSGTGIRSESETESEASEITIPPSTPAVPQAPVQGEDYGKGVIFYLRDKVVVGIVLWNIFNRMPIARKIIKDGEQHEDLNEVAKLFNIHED
# W196Y hAIF_(Δ1-101) = biological target: T2, W196Y hAIF_(Δ1-101) (human, UniProt O95831 102-613, W196Y); test: as above
# T2 construct: FAD holoprotein; 'ox' oxidized, 'CTC' after reduction with NADH; The His6 tag is called cleavable; whether it was cleaved is told only in the supplementary materials; also called W196Yox; W196Y CTC; source: E. coli C41 (DE3), purified to homogeneity (protocol in the supplementary materials)
# T2 sequence (O95831 102-613 W196Y): as the sequence (O95831 102-613, stated change not applied) above, with W95Y counted along it
# W196A hAIF_(Δ1-101) [2] = biological target: T3, W196A hAIF_(Δ1-101) (human, UniProt O95831 102-613, W196A); test: as above
# T3 construct: FAD holoprotein; 'ox' oxidized, 'CTC' after reduction with NADH; The His6 tag is called cleavable; whether it was cleaved is told only in the supplementary materials; also called W196Aox; source: E. coli C41 (DE3), purified to homogeneity (protocol in the supplementary materials)
# T3 sequence (O95831 102-613 W196A): as the sequence (O95831 102-613, stated change not applied) above, with W95A counted along it
# W196A hAIF_(Δ1-101) [3] = biological target: T3, W196A hAIF_(Δ1-101); test: ITC; Auto-iTC200, 25°C, 50 mM potassium phosphate, pH 7.4; 10-20 μM protein partner titrated into ~10 μM oxidized hAIF_(∆1-101) variant, without NADH; single-ligand binding site model
binder,measurement,setting,value
B1,Kd,[1],200 nM
same,dH,[1],-20.1 kcal/mol
same,Kd,W196Y hAIF_(Δ1-101),2100 nM
same,dH,W196Y hAIF_(Δ1-101),-8.2 kcal/mol
same,Kd,W196A hAIF_(Δ1-101) [2],500 nM
same,dH,W196A hAIF_(Δ1-101) [2],-5.9 kcal/mol
same,Kd,W196A hAIF_(Δ1-101) [3],400 nM
same,dH,W196A hAIF_(Δ1-101) [3],9.6 kcal/mol

# From article PMC7822688, “W196 and the β-Hairpin Motif Modulate the Redox Switch of Conformation and the Biomolecular Interaction Network of the Apoptosis-Inducing Factor” (Oxidative Medicine and Cellular Longevity, 2021)
